Source: US20060166920A1, “Oligonucleotide based therapeutics” (Regents of the University of Michigan, priority 2004, published 2006)

B1: siRNA #2: Bcl-xL small hairpin siRNA cassette, SEQ ID NO: 4, 76 bp (nucleic acid, listed as Homo sapiens)
DNA: GGATCCCGCTTGTCTACGCTTTCCACGCATTGATATCCGTGCGTGGAAAGCGTAGACAAGTTTTTTCCAAAAGCTT
modifications: expressed or natural sequence; the letters are possibly those of the target site
B2: siRNA #3: Bcl-xL small hairpin siRNA cassette, SEQ ID NO: 5, 76 bp (nucleic acid, listed as Homo sapiens)
DNA: GGATCCCGCGATCCGACTCACCAATACCTTTGATATCCGAGGTATTGGTGAGTCGGATCGTTTTTTCCAAAAGCTT
modifications: expressed or natural sequence; the letters are possibly those of the target site

How the values were obtained:
[1] = system: human Bcl-xL; assay: Western blot of PC-3 cells transfected with Bcl-xL siRNA cassettes; assay type: cell-based; conditions: inferred from transfection efficiency of 40% to 50%
Method: (§1) Human prostate cancer PC-3 cells and human breast cancer MCF-7 cells were transfected with the designed Bcl-xL dsRNA (siRNA) cassettes, using a transferrin-liposome system (LipofectaminePlus, Invitrogen). Briefly, 5×10^5 cells were plated per well in 6-well plates. After overnight culture, the cells were 60% to 70% confluent. The transfection was performed according to the manufacturer's instruction, with 0.4 μg siRNA cassette DNA per well. The cells were cultured for 48 hr, then harvested and cell lysates were made for Western blot analysis. 15 μg of protein were added to each lane for SDS-PAGE. […] Similar results were also observed in MCF-7 cells (See, e.g., FIG. 2). […] Therefore, with efficient delivery to the cells, the Bcl-xL siRNA effectively induces cell death.

[2] = system: Bcl-xS; assay: Western blot of MCF-7 cells transfected with Bcl-xL siRNA cassettes; assay type: cell-based, human; conditions: 0.4 μg siRNA cassette DNA per well, 48 hr
Method: as §1

[3] = system: human Bcl-xL; assay: as above; assay type: cell-based
Method: as §1

[4] = system: human breast cancer MCF-7 cells; assay: Cell death of MCF-7 cells after transfection; assay type: cell-based; conditions: MCF-7 cells 48 hr after transfection of siRNA cassette
Method: as §1
MCF-7 and PC-3 cells were transfected with psiBcl-xL (transfection conditions were performed as described above). In some experiments, FuGene 6 (Roche) was used due to low toxicity and high efficiency for plasmid transfection. Briefly, 60% confluent cells were transfected with 1-3 μg psiBcl-xL or psiLuc DNA per well in a 6-well plate (DNA:FuGene 6 ratio=1 μg:3 μl). […] The transfection efficiency of FuGene 6 (as detected by green fluorescence protein (GFP) expression; psiBcl-xL posseses the green fluorescence protein (GFP) gene, See, e.g., FIG. 4) for MCF-7 cells was about 40% -50%. […]

[5] = system: Bcl-xS; assay: Western blot of PC-3 cells transfected with Bcl-xL siRNA cassettes; assay type: cell-based, human; conditions: 0.4 μg siRNA cassette DNA per well, 48 hr
Method: as §1

Molecule | Bcl-xL gene knockdown in the cells transfected [1] | effect on Bcl-xS expression [2] | down-regulation of Bcl-xL ([3]; 0.4 μg siRNA cassette DNA per well, LipofectaminePlus, 48 hr) | Bcl-xL down-regulation in the transfected cells ([3]; inferred from transfection efficiency of 40%-50%) | cell death [4] | effect on Bcl-xS expression [5]
B1 | ~100% | without significantly affecting Bcl-xS expression | > 50% | ~100% | up to 50% | without significantly affecting Bcl-xS expression
B2 | ~100% |  |  |  | somewhat less cell death | without significantly affecting Bcl-xS expression
